To fix the notation:
B1: CPEB3 Ribozyme (parent)
chain: GGGGGCCACAGCAGAAGCGUUCACGUCGCGGCCCCUGUCAGAUUCUGGUGAAUCUGCGAAUUCUGCUGU

The series covers variants of B1. Nature of the series: self-cleavage, relative activity (ratio to wild type); higher = more cleavage; co-transcriptional.
With G2U U55C, the self-cleavage turned out to be 0.0989.
On to G2U U55G, for which the self-cleavage was determined as 0.0565.
Next, G1C C29A: 0.168; G2U U36G: 0.0492; G2U U26C: 0.077.
With G2U U26A, the self-cleavage was 0.0542.
Consider G1U A8G, for which the self-cleavage was 0.0916.
Next, G1U A15U: 0.0945.
In the case of G2A C63A it was 0.104; in that of G2C C29A, 0.0311; in that of G1U G2U, 0.392.
In the case of G2A G31C it was 0.0358; in that of G2A G31U, 0.0712.
Consider G2C C7G, for which the self-cleavage stood at 0.0326.
Next, G1U C9A: 0.181; G2U C29U: 0.0589; G1U C66U: 0.127.
Next, G1U G30A: 0.0902; G2A A10U: 0.336; G1C G3C: 0.0906.
As to G2A C32G, the self-cleavage is 0.0194.
In the case of G2A C32A it was 0.0579; in that of G1C A16C, 0.161.
In the case of G2U C35U it was 0.0749.
G2U C35G: the self-cleavage is 0.109.
In the case of G1C U26A it was 0.165.
In the case of G2A C39G it was 0.0948; in that of G2C G19A, 0.0455; in that of G2A U44G, 0.0958.
Next, G2A U44A: 0.111.
As to G2U C32A, the self-cleavage was found to be 0.107.
On to G1C C57U, for which the self-cleavage turned out to be 0.07.
In the case of G1C G48A it was 0.204; in that of G1C G48C, 0.215.
Next, G2U U69A: 0.124; G2C A13C: 0.0327.
In the case of G1U G5U it was 0.0243; in that of G1U G5A, 0.101.
Regarding G2U U62A, the self-cleavage was 0.0777.
Next, G2U U62C: 0.108; G1C C54U: 0.237.
In the case of G1C C54A it was 0.272.
Next, G1A G48C: 0.142; G2A G68U: 0.335; G1C G14C: 0.152.
Regarding G2U G65A, the self-cleavage came out at 0.0788.
Next, G1C C66G: 0.248; G2U A52U: 0.0917; G2U A52G: 0.0867.
Next, G1C C22U: 0.0706; G1C U61A: 0.253; G1U C33G: 0.102.
In the case of G1U C33U it was 0.214; in that of G1C A8G, 0.205.
On to G1A U43C, for which the self-cleavage was found to be 0.0436.
In the case of G1A U43A it was 0.0552.
In the case of G1A U43G it was 0.0723; in that of G2U G4A, 0.0959; in that of G1A U64C, 0.0762.
As to G2A C24U, the self-cleavage was 0.0737.
Next, G2A C24A: 0.0565; G2C U53C: 0.0834; G2C U53A: 0.0158.
For the variant G1C G41U, the self-cleavage was 0.193.
Next, G1C C63G: 0.201; G1C U44C: 0.232; G2C A42C: 0.0895.
Next, G2C A42U: 0.0317.
In the case of G2U G5C, the self-cleavage was 0.0693.
In the case of G2U G5A it was 0.0678; in that of G1U U61C, 0.117; in that of G1C G50C, 0.145.
In the case of G1C G50A it was 0.224; in that of G1C C32G, 0.148; in that of G1C G65A, 0.134.
In the case of G1C G65C it was 0.174.
With G1C G4U, the self-cleavage was 0.205.
In the case of G1U G25A it was 0.0632.
In the case of G1U G25C it was 0.0418.
Next, G1U G25U: 0.0227; G1C A15U: 0.229; G2U A23G: 0.0867.
G1A U21C: the self-cleavage is 0.0967.
Turning to G2C C27U, the self-cleavage was determined as 0.0172.
G2C G37C: the self-cleavage came to 0.0304.
Next, G2C U62C: 0.011; G1U U26G: 0.0529; G1U U26A: 0.0674.
For G1C G2C, the self-cleavage is 0.67.
Next, G1C G2U: 0.142; G2A G5U: 0.0444; G1U U20G: 0.0369.
Next, G1U U20C: 0.068; G1U G28U: 0.0723; G2A A16C: 0.0551.
In the case of G2A A16G it was 0.179; in that of G2A C18A, 0.0515; in that of G2A C18G, 0.0324.
G2C G65U: the self-cleavage amounted to 0.102.
G2C G65A: the self-cleavage amounted to 0.0284.
Next, G1C U20A: 0.0802.
Next, G2U A60G: 0.0636; G1U G50A: 0.139.
As for G1A G37A, the self-cleavage worked out at 0.0641.
In the case of G1U C63G it was 0.111; in that of G2A U61G, 0.0696; in that of G2A U61A, 0.0537.
In the case of G1U C27U it was 0.0539.
Take G1U C45A: the self-cleavage stood at 0.11.
In the case of G2A A15G it was 0.166; in that of G2C G30C, 0.072; in that of G1A U44G, 0.0722.
Next, G2U C54A: 0.0587.
Next, G1A U61G: 0.15; G1A U61A: 0.0967.
Consider G2U C34U, for which the self-cleavage was 0.103.
In the case of G2A C7G it was 0.063; in that of G1C G28A, 0.102.
Turning to G2U C27A, the self-cleavage was found to be 0.0514.
Next, G2U G48C: 0.0769; G2C A23U: 0.1; G2C A23G: 0.0311.
In the case of G1U G17C it was 0.0433.
Next, G1U G17A: 0.0548.
Take G1U C57A: the self-cleavage stood at 0.0933.
Next, G2A G25A: 0.0813.
Next, G1C U69G: 0.409; G1C U69C: 0.396; G2A A23U: 0.284.
In the case of G1A G31U it was 0.0837; in that of G2U U64G, 0.0605; in that of G2U U64C, 0.0967.
In the case of G2A G17C, the self-cleavage was determined as 0.0329.
Next, G1U G56A: 0.111.
Consider G2U C66U, for which the self-cleavage was found to be 0.096.
Next, G2U C66A: 0.073; G1C G30U: 0.162.
For G2C G25A, the self-cleavage is 0.0488.
Next, G2C U44A: 0.0552.
Next, G2C U44G: 0.06.
Next, G1U G14U: 0.0869; G2A C45A: 0.132; G2A C45U: 0.117.
Turning to G2A A52C, the self-cleavage was found to be 0.167.
As to G1U U36A, the self-cleavage was determined as 0.0485.
Next, G1C C9A: 0.251.
Next, G2U G28U: 0.0242; G1A U67A: 0.121; G1A U67G: 0.0812.
As for G1C G56U, the self-cleavage was found to be 0.224.
Next, G1U C54U: 0.136; G2A G4U: 0.0384; G2A G4A: 0.0501.
With G2A G4C, the self-cleavage worked out at 0.0317.
Next, G2C U21C: 0.0403; G1C U36G: 0.297; G2C C66G: 0.0186.
In the case of G2A U53C it was 0.104; in that of G2A U53A, 0.111.
Next, G2C C63U: 0.0396; G2C C63A: 0.0459.
As to G2C A51U, the self-cleavage turned out to be 0.056.
Next, G2U G31A: 0.0769; G2A C33G: 0.0627.
In the case of G1C U38A it was 0.267; in that of G2C U36G, 0.052; in that of G2C U36A, 0.0481.

For the origin of these results see the RNAGym collection of RNA variant scans (doi:10.7554/elife.80360).
